Patent publication CN114891104A (YOURUI SAISI WUHAN BIOTECHNOLOGY CO LTD, dated 2022)

Biological target: T1, 重组人proAMH蛋白 (recombinant human proAMH protein) (human, UniProt P03971 25-560)
T1 construct: Expressed in Expi293 cells and purified on Ni-IMAC; nothing is said about the recombinant protein itself; also called His-tag重组人proAMH蛋白; 人proAMH标准品蛋白; not shown: His-tag; neither its length nor its terminus is stated
T1 sequence (looked up): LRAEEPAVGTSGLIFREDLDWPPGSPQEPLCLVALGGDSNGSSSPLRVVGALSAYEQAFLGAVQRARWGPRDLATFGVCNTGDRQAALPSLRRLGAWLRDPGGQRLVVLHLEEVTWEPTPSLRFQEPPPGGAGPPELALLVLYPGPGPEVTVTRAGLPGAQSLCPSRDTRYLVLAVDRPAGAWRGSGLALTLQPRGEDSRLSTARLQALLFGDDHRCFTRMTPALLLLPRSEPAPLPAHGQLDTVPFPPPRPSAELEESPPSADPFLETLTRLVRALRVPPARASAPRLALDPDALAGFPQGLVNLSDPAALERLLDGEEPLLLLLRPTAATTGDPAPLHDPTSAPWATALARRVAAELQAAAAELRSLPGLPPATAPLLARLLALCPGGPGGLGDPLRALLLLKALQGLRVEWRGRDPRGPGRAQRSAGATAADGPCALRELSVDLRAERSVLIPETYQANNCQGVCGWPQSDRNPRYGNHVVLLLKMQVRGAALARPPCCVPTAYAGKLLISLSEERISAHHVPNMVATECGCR
Test: SPR, Biacore 3000; antibody immobilised on CM5 chip, proAMH at 100-3 nM as analyte

B1: 单克隆抗体A (抗人proAMH蛋白兔单克隆抗体A) (antibody, V domains shown)
VH: QSVKESEGGLFKPTDTLTLTCTVSAFSISTYGVSWVRQAPGNGLEYIGWIAATGKVFYASWAKSRSTITRNTYENTVTLKMTSLTVADTATYFCAHVIWATQTFDFWGPGTLVTVSS
VL: DVVMTQTPASVSDPVGGTVTIKCQASQTITNFLSWFQQKPGQPPKLLIYNTMTLASGVPSRFKGSGSGTEYTLTISGVECADAATYYCQEGDNWDEVDAVFGGGTEVVVKG
notes: Recombinant rabbit monoclonal antibody made in 293F cells; kappa light chain, heavy constant region called IgG1 type; Copies '2' follows from the IgG format; also called monoclonal antibody A
  Kd: 6.02 nM
  koff: 0.000117 s⁻¹
  kon: 19500 M⁻¹ s⁻¹
